Molecular target: Fc-binding nanodisc F-ND_(P2N2), made with F-MSP2N2
Assay: SEC

immunoglobulin G (IgG) (antibody) gave a stoichiometry N of 1 molar ratio.
